From publication PMC8646042

Target: T1, endogenous IRF3 (human (endogenous in 293T)), Q14653
T1 chain: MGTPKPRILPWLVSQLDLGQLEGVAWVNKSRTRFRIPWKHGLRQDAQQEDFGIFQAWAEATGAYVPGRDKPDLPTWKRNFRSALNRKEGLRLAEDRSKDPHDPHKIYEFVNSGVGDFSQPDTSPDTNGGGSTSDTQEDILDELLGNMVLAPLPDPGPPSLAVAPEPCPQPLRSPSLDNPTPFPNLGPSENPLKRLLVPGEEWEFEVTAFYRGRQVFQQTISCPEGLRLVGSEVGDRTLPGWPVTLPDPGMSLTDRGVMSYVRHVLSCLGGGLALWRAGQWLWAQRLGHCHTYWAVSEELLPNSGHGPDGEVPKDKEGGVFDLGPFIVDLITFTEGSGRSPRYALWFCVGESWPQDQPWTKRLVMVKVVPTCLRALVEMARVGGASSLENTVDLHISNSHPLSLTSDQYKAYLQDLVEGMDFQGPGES
Test: native gel or EMSA; Native PAGE of lysates of 293T or MCF7 cells and western blot with anti-IRF3; SeV infection for 12 h or MAVS transfection; N4BP3 overexpressed, knocked down or knocked out
Conditions: remark: other sources report otherwise

B1: endogenous IRF3, Q14653 1-427 (natural protein)
chain: T1 chain
Question: B1 was tested. Which stoichiometry N did it give?
Answer: Its stoichiometry N is 2.
